Measured values taken from PMC4949953.

Biological target: computationally redesigned, water-soluble variant of the human μ-opioid receptor (MOR) (human) (UniProt P35372)
Experiment: MoS2 field effect transistor biosensor

Substance: [D-Ala^2, N-MePhe^4, Gly-ol]-enkephalin (peptide)
- Kd: 0.087 µM
